Test: yeast display, Sf9 membrane polyspecificity reagent, FACS + sequencing; frameworks hold sequencing errors
Method in brief: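 After 36–48 hours of galactose induction, yeast (Saccharomyces cerevisiae BJ5465) displaying a synthetic nanobody library were stained at 4 °C for 1 hour with 10% biotinylated, detergent-solubilized Sf9 membrane reagent. Streptavidin microbeads enriched the stained cells before FACS sorting into low and high (top ~1%) gates on anti-HA and streptavidin fluorescence. Each clone's polyreactivity label reflects its gate of origin.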

Row | Sequence | polyreactivity (PSR sort gate)
1 | QVQLVESGGGLVQAGGSLRLSCAASGITFEPYDMGWYRQAPGKERELVAAISTTGGRTYYADSVKGRFTISRDNAKNTVYLQMNSLKPEDTAVYYCAARYTTRRRYDYWGQGTQVTVSS | high polyreactivity
2 | QVQLVESGGGLVQAGGSLRLSCAATGYTLYYNAMGWYIQAPGKERELVAAITSGGSTSYADSVKGRFTISRDNAKNTVYLQMNRLIPEDTAVYYCAAVFYRRFDYWGQGTQVTVSS | low polyreactivity
3 | QVQLVESGGGLVQAGGSLRLSFAASGIIFDINAMGWYRQAPGKERELVAAITTSVDSTYYADSVKGRFTISRDNAKNTVYLQMNSLKPEDTAVYYCAAGPGDSGDDYWGQGTQVTVSS | low polyreactivity
4 | QVQLVESGGGLVQAGGSLRLSCAATGRTFSVYTMGWYRQAPGKERELVASISRSGGRTYYADSVKGRFTISRDNAKNTVYLQMNSLKPEDTAVYYCAARWYSASALKYYYWGQGTQVTVSS | high polyreactivity
5 | QVQLVESGGGLVQAGGSLRLSCAASGSIFAIYAMGWYRQAPGKERELVAAISYGDGSTYYADSVKGRFTISRDNAKNTVYLQMNSLKPEDTAVYYCAVGTRVKYDYWGQGTQVTVSS | high polyreactivity
6 | QVQLVESGGGLVQAGGSLRLSCAASGFTFAYYAMGWDRQSPGNEREFVAAISSRGGSTYADSVKGRFTISRDNAKNTVYLQMNSLKPEDTAVYYCNAVVPRSRYFSWTYDYWGQGTQVTVSS | high polyreactivity
7 | QVQLVESGGGLVQAGGSLRLSCAASGLTFWDNAMGWYRQAPGKERELVAAITRSGGSTHYADSVKGRFTISRDNAKNTVYLQMNSLKPEDTAVYYCAADYDFYDFSYQSWSEENYWGQGTQVTVSS | low polyreactivity
8 | QVQLVESGGGLVQAGGSLRLSCAASGRIFGSYAMGWYIQAPGTERELVAAINRRGGSTFYADSVKGRFTISRDNAKNSVYLQMNSLKPEDTAVYYCARRGYRQSGDYWGQGTQVTLSS | low polyreactivity
9 | QVHLVESGGVLVQAGGSLRLSCAASGRIFSYYAMGWYRQAPGKEREMVAAISWTVGSTYYADSVKGRFTISRDNAINTVYLQMNSLYPEDTAVFYCAAAYGWSWYRYDYWGQGTQVTVSS | high polyreactivity
10 | QVHLVESRGVLVQAGGSLRLSCAASGRTFPSYTMGWYRQAPGKERELVAAITWTGGSTYYADSVKGRFTISRDNAKNTVYFQMNSLKPDDTAVYYCADYDYWGQGTQVTVSS | low polyreactivity
11 | QVQLVESGGGLVQAGGSLRLSCAASGNTFSPYGMGWYRQAPGKERELVAGITISDDSTYYADSVKGRFTISRDNAKNTVYLQMNSLKPEDTAVYYCNARYLSWYFKYLYDYWGQGTQVTVSS | low polyreactivity
12 | QVQLVESGGGLVQAGGSLRLSCAASGSTFNRNTMGWYRQAPGKERELVAAITSSGGRTYYADSVKGRFTISRDNAKNTVYLQVNSLKPEDTAVYYCANVIRVLIAGRFDSWGQGTHVTVSS | high polyreactivity
13 | QVQLVESGGGLVQAGGSLRLSCAASGSTFFHYAMGWYRQAPGKERELVAAIDSNGGSTYYADSVKGRFTISRDNAKNTVYLQMNSLKPEVTAVYYCAADDLAEFEYDYWGLGTQVTVSS | low polyreactivity
14 | QVQLVESGGCLVQAGGSLRLSCAASGSTFIDYAMGWYRQAPGKERELVAAITNGGNTKYADSVKGRFTISRDNAKNTVYLQMNSLKPEDTAVYYCAREPSIFTPSYDYWGQGTQVTVSS | low polyreactivity
15 | QVQLVESGGGLVQAGGSLRLSCAASGRTFYVYTMGWYRQAPGKERELVAGISYSGGSTYYADSVKGRFTISRDNAKNTVYLQMNSLKPEDTAVYYCNRGLAARVGRGDYWGQGTQVTVSS | low polyreactivity
16 | QVQVVESGGGLVQAGGSLLLSCAASGSTFEYNAMGWYRQAPGKERELVASSTNYADSVKGRFTISRDNAKNTVYLQMNSLKPEDTAVYYCARELGVNRKHDYWGQGTQVTVSS | low polyreactivity
17 | QVQLVESAGGLVQAGGSLRLSFAASGFTFAKYAMGWYRQAPGKERELVAGISRRGGSTYYADSVKGRFTISRDNAKNTVYLQMNSLKPEDTAVYYCNADLVRPGYYRYDYWGQGTQVTVSS | high polyreactivity
18 | QVQLVESGGGLVQAGGSLRLSCAASGSIFTPYAMGWYRQAPGKERELVAAISSDGSTYYADSVKGRFTISRDNAKNTVYLQMNSLKTEDTAVYYCAAEYSWYYYYLFVGEYDYWGQGTQVTVSS | low polyreactivity
19 | QVQLVESGGGLVQAGGSLRLSCAASGFTFGSNAMGWYRQAPGKERELVAAISWSGGRTYYADSVKGRFTISRDNAKNTVYLQMNSLKPEDTAVYYCNKQYVKPWYRGYYYWGQGTQVNVSS | high polyreactivity
20 | QVQLVESGGGLVQAGGSLRLSCAASGRTFARYAMGWYRPAPGKERELVASITRTGGSTYYADSVKGRFTISRDNAKNTVYFQLNSLKPEDTAVYDCATQSWKVRSKMDYWGQGTQVTVSS | high polyreactivity
21 | QVQLVESGGGLVQAGGSLRLSCAASGRIFAWYVMGWYRQAPRKEREFVAAIRWRSGSTHYADSVKGRFTISRDNAKNTVYLQMNSLKPEDTAVYYCAVDSRTYNGDYWGQGTQVTVSS | high polyreactivity
22 | QVQLQESGGGLVQAGGSLRLSCAASGSIFDYVSMGWYRQAPGEERELVVTITLGSNTYYADSVKGRFTISSDIAKNTVYLQMNSLNPEDTAVYYCAPSALWGYVYPYWGLGTQVTVSS | high polyreactivity

Row | Sequence | polyreactivity (PSR sort gate)
23 | QVQLVESGGGLVQAGGSLRLSCAASGNIFDRYVMGWYRQAPGKERELVAAISVSGGSTYYADSVKGRFTISRDNAKNTVYLQMNSLKPEDTAVYYCAAHSRLINWYDYWGQGTQVTVSS | high polyreactivity
24 | QVQLVESGGGLVQAGGSLRLSSAASGSIFSSYAMGWYRQAPGKERELVAAITKRADRTNYADSVKGRFTISRDNAKNTVYLQMNSLKPEDTAVYYCNAEGQNDHPSNGYISYKYDYWGQGTQVTVSS | low polyreactivity
25 | QVQLVESGGGLVQAGGSLRLSCAASGFIFGFYAMGWYIQAPGKERELVAAISGGGGRTNYADSVKGRFTISRDYAKNTVYLQMNSLNPEDTAVYYCAATPGRRRYRYYYWGQGTQVTVSS | high polyreactivity
26 | QVQLVESGGGLVQAGGSLRLSCAASGSTFYYYAMGWYRQAPGKEREFVAAITWSGGSTYYADSVKGRFTISRDNAKNTVYLQMNSLKPEDTAVYYCAKDQRYYYYGGGDYWGQGTQVTVSS | low polyreactivity
27 | QVQLVESGGRLVQAGGSLRLICAASGRIFKQYAMGWYRQSPGKERELVARITGSGSRTYYADSVKGRFTISRDNAKITVYIQMKSLKPEDTAVYYCAKDRYYGKRGGAWYDYWGQGTQVTVSS | low polyreactivity
28 | QVQLVESGGGLVQAGGSLRLSCAASGSIFRAYAMGWYRQAPGKERELVAAITRGGSTNYADSVKGRFTISRDNAKNNVYLQMKSLKPEDTAVYYCAAQNYWYYPRRFDYWGQGTQVTVSS | high polyreactivity
29 | QVQLVESGVGLVQAGGTLRLSCAASGRIFTINAMGWYRQAPGKEREFVAAISGSGGTTYYADSVKGRLTISRDNAKNTVYLQMNSLKPEDTAVYYCAVSQSWYWYYASDYWGQGTQVTVSS | low polyreactivity
30 | QVQRVESGGGLVQAGGSLRLSCAASGLTFVYYAMGWYRQAPGKERELVAAISESGTSTYYADSVKGRFTISRDNAKNTVYLQMNSLKPEDTAVYYCAAKDSYYEMDYWGQGTQVTVSS | high polyreactivity
31 | QVHLVESGGGLVQAGGSLRLTCAASGSIFAYYTMGWYRQEPGKERELVAAISRTGTSTFYADSVKGRFTISRDNAKNTVDLQMNSLKPEDTSVYYCIAVAPGKYNHWGQGTQVTVSS | high polyreactivity
32 | QVQLVESGGGLVQAGGSLRLSCAASGSTFEVYAMGWYRQAPGTERELVAVITNSGTSTNYADSVKGRFTISRDNAKNTVYLQMTSLKPEDTAVYYCAADVEWTSRGSYYRYYYWGQGTQVTVSS | low polyreactivity
33 | QVQLVESGGGLVQAGGSLRLSCAASGRTFGWYAMGWYRQAPGKERELVAAITYPTGSTYYADSVKGRFTISRDNAKNTVYLQMNSLKPEDTAVYYCAAQGYISAGYKYDYWGQGTQVTVSS | low polyreactivity
34 | QVQLVESGGGLVQAGGSLRLSCAASGRIITEYVTGCYTQAPGKERELDAAAITRGGSTNYADSVKGRFTLSRDNAKNTVYLQKNSLIPEDTAVYHCNKDDWPVSRQLYTGKHDSWGQGTQVTVSS | low polyreactivity
35 | QVQLVESGGGLVQAGGSLRLSCAASGRTFGNYVMGWYRQAPGKERELVAAIRSGTNTYYADSVKGRFTISRDNAKNTVYLQMNSLKPEDTAVYYCAAARYTKFDYWGQGTQVTVSS | high polyreactivity
36 | QVQLVESGGGLVQAGGSLRLSCAACGFSFWRNAMGRTRRAPGKDRELVAAISASGGSTYYADSVKGRFTISRDNATNTVFLQRNSLKPEDTAVYYCAADTQGFYRYDYWGQGTQVTVSS | low polyreactivity
37 | QVQLVESGGGLVQAGCSILLSCAASGRIFDNYAMGWSRQAPGKERELVAASRYSDDATDYADSVKGRFTISRDNAKNTVYLQMNSLIPEDPAVYYCAADVKRYGWEYGYWGQGTQVTVSS | low polyreactivity
38 | QVQHVESVGCLVQAGGTLRLSCASSVRTFLWYTMGWYRQAPGKKRELVATITSGGRTNYADSVKGRFTISRDNAKNTVYLQMNSLNPEDTAVYYCARLGAYTGRYDYWGQGTQVTVSS | high polyreactivity
39 | QVQLVESGGGLVQAGGSLRLSCAASGRTFNHYAMGLYRQAPGKERELVAGITISGGSTYYADSVKGRFTISRDNAKNTVYLQMNSLKPEDTAVYYCNAVYEYYRHSKWTMDYWGQGTQVTVSS | low polyreactivity
40 | QVQLVESGGGLVQAGGSLRLSCVASGRIFARNAMGWYRQAPGKERELVAAITWSVGSTYYADSVKGRFTISRDNAKNTVYLQMISLKPEDTAVYYCAERYWYSRYWYDYWGQGTQVTVSS | high polyreactivity
41 | QFQLVESGGGLVQAGGSLRLSCAASGRIFRGNAMGWYRQAPGKERELVAAILTGVSTYYADSVKGRFTISRDNAKNTVYLQMNSLKPEDTAVYYCAAERPSRRSGYEYWGQGTQVTVSS | low polyreactivity
42 | QVQLVESGGGLVQAGGSLRLSCAASGSTYVQYAMGWYRKAPGKERELVPVISYSGGSTYYADSVKGRFTISRDNAKNTVYLQMNSLKPEDTAVYYCAAVYGGGHRKMDYWGQGTQVTVSS | low polyreactivity
43 | QVQLVESGGGLVQAGGSLRLSCAASGFTFRKKAMGWYRQAPGKERELVAAIRGSAGSTYYADSVKGRFTNSRDNAKITVYLQMNSLQQEDTAVYYCATGGYPSLWYGYGYWGQGTQVTVSS | low polyreactivity
